For this experiment, the target named is T1, extracellular Venus Flytrap (VFT) module of human GBR2 (human, UniProt O75899 42-466, carbohydrate at Asn404).
T1 sequence (looked up): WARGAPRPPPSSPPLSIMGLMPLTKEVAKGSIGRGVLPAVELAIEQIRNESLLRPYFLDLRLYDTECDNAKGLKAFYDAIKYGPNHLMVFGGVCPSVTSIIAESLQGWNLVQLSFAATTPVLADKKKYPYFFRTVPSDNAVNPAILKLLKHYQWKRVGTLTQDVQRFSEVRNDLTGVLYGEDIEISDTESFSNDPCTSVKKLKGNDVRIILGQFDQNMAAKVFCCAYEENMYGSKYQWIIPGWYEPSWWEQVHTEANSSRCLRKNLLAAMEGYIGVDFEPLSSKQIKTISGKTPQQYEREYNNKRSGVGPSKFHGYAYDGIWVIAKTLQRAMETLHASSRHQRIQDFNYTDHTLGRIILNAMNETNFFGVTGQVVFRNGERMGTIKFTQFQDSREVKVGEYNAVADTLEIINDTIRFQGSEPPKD
Put plainly: crystal structure.

B1: extracellular Venus Flytrap (VFT) module of human GBR1b (domain or fragment, UniProt Q9UBS5-2 48-459, looked up)
chain: SERRAVYIGALFPMSGGWPGGQACQPAVEMALEDVNSRRDILPDYELKLIHHDSKCDPGQATKYLYELLYNDPIKIILMPGCSSVSTLVAEAARMWNLIVLSYGSSSPALSNRQRFPTFFRTHPSATLHNPTRVKLFEKWGWKKIATIQQTTEVFTSTLDDLEERVKEAGIEITFRQSFFSDPAVPVKNLKRQDARIIVGLFYETEARKVFCEVYKERLFGKKYVWFLIGWYADNWFKIYDPSINCTVDEMTEAVEGHITTEIVMLNPANTRSISNMTSQEFVEKLTKRLKRHPEETGGFQEAPLAYDAIWALALALNKTSGGGGRSGVRLEDFNYNNQTITDQIYRAMNSSSFEGVSGHVVFDASGSRMAWTLIEQLQGGSYKKIGYYDSTKDDLSWSKTDKWIGGSPPAD
modifications: carbohydrate at Asn323 and Asn365 (seen in apo and antagonist-bound structures)
With B1, the binding result is “binds”.

The values are drawn from publication PMC3865065 (Nature, 2013).
